Tests used:
[1] = test system: T cell hybridoma A1.1 cells; assay: T cell hybridoma A1.1 proliferation in co-culture with MSCs; format: cell-based, mouse
Method: FIG. 7. […] MSC cells and T-cell hybridoma A1.1 cell line were co-cultured at a ratio of 1:20. The co-cultures were supplemented with IFNγ+ TNF α, or IL-17A+IFNγ+TNFα. Cell proliferation was measured by the cell density indicated by O.D. 570 nm.
FIGS. 9A, 9B, 9C, 9D, 9E, 9F and 9G. (FIG. 9A). Cloned MSCs were first treated with the indicated combinations of recombinant cytokines IFNγ, TNFα, IL-17A (2 ng/ml each) for 12 hr, then cocultured with CD4^+ T cell blasts at a 1:20 ratio (MSC:T cells), and proliferation was assessed by 3H-thymidine incorporation after an additional 12 hr. (FIG. 9B). The mRNA expression of IL-17 receptor family members in MSCs or Raw 264.7 (Macrophages) were examined by RT-PCR. NC: No RT. (FIG. 9C). Surface expression of IL-17RA was detected by immunofluoresence or flow cytometry in cloned MSCs. (FIGS. 9D and 9E). MSCs were first treated with IFNγ and TNFα with or without IL-17A (10 ng/ml), IFNγ and TNFα were supplemented at different cytokine concentrations, for 12 hr, and then cocultured with CD4^+ T cell blasts (FIG. 9D) or T cell hybridoma A1.1 cells (FIG. 9E) at a ratio of 1:20 for 12 hr. T cell proliferation was measured by 3H-Tdr incorporation. (FIG. 9F). MSCs were first treated with IFNγ and TNFα (2 ng/ml) with graded concentrations of IL-17A, for 12 hr, and then cocultured with T cell hybridoma A1.1 cells at a ratio of 1:10 for 12 hr. T cell proliferation was measured by 3H-thymidine incorporation. (FIG. 9G). MSCs were cocultured with fresh C57BL/6 splenocytes plus anti-CD3, anti-CD28, and antibodies against IL-17A, at a 1:20 or 1:40 ratio (MSCs:splenocytes), for 48 hr, and then cell proliferation was assessed by 3H-thymidine incorporation. Proliferation values represent means±SEM of three wells from a representative of three experiments.
FIGS. 11A, 11B, 11C and 11D. (FIG. 11A) MSCs with Act1 knockdown or control were treated with IL-17A for different time and the phosphorylation levels of IκBα, ERK, p65, JNK were assessed by Western Blot. (FIG. 11B) MSCs with Act1 knockdown or control were treated with IFNγ and TNFα with or without IL-17A (all cytokines supplemented at 5 ng/ml) the protein levels of iNOS and Act1 were assessed by Western Blot. (FIG. 11C) MSCs (Act1 knockdown or control) were treated with different cytokines 12 hr, and iNOS expression was measured by quantitative RT-PCR. mRNA expression values are means±SEM. (FIG. 11D) MSCs (Act1 knockdown or control) were first treated with IFNγ and TNFα with or without IL-17A (all cytokines supplemented at 5 ng/ml) for 12 hr, and then cocultured with T cell hybridoma A1.1 cells at a ratio of 1:10 for 12 hr. T cell proliferation was measured by 3H-Tdr incorporation, taking the proliferation level of A1.1 alone as 100%.
FIGS. 14A and 14B. (FIG. 14A). WT MSCs or auf1^−/− MSCs were first treated with IFNγ and TNFα with or without IL-17A (all cytokines supplemented at 5 ng/ml) for 12 hr, and then cocultured with T cell hybridoma A1.1 cells at a ratio of 1:10 for 12 hr. T cell proliferation was measured by 3H-Tdr incorporation, taking the proliferation level of A1.1 alone as 100%. (FIG. 14B). WT MSCs or auf1^−/− MSCs were first treated with IFNγ and TNFα with or without IL-17A (10 ng/ml), IFNγ and TNFα were supplemented at different cytokine concentrations, for 12 hr, and then cocultured with T cell hybridoma A1.1 cells at a ratio of 1:10 for 12 hr. T cell proliferation was measured by 3H-Tdr incorporation, taking the proliferation level of A1.1 alone as 100%. […]

[2] = test system: MSCs; assay: Messenger RNA decay assay in MSCs after actinomycin D; format: cell-based, mouse
Method: FIGS. 8A and 8B. IL-17A prevented the decay of iNOS mRNA, (FIG. 8A) the iNOS mRNA stability was measured at different time points after actinomycin D treatment in IFNγ+TNFα and IFNγ+TNFα+IL-17A treatment groups. (FIG. 8B) iNOS expression enhancing effect of IL-17A at different times after IFNγ and TNFα treatment.
FIGS. 13A and 13B. Wild-type (FIG. 13A) or […] (FIG. 13B) were treated with IFNγ and TNFα, with or without IL-17A (all cytokines supplemented at 10 ng/ml), for 6 hr, and then actinomycin D (5 μg/ml) was added to stop transcription. At the indicated time points, mRNA levels were assayed by quantitative RT-PCR, taking the expression level at the time of actinomycin.D addition as 100%. mRNA expression values are means±SD of three wells from a representative of three independent experiments.
Messenger RNA decay assays-Messenger RNA decay assays were performed essentially. MSCs were incubated with cytokine combinations for 6 hr. Actinomycin D (Act.D) was added into the medium at a final concentration of 5 μg/ml to stop transcription. At various time points after addition of Act.D, cells were harvested for extraction of total RNA.
Levels of iNOS, CXCL1, CCL2, CXCL10 and IL-6 mRNAs were measured at each time point by quantitative RT-PCR and normalized to levels of β-actin mRNA. Percentages of mRNA remaining for each time point were plotted versus time after Act.D addition. First order decay constants, k, were determined by nonlinear regression. The associated mRNA half-lives, t1/2, were calculated with the equation t1/2=ln2/k.

B1: IL-17A: recombinant mouse interleukin 17A (protein)
chain: AAIIPQSSACPNTEAKDFLQNVKVNLKVFNSLGAKVSSRRPSDYLNRSTSPWTLHRNEDPDRYPSVIWEAQCRHQRCVNAEGKLDHHMNSVLIQQEILVLKREPESCPFTFRVEKMLVGVGCTCVASIVRQAA
- enhancement of immunosuppression in absence of Act1 ([1]; 5 ng/ml, A1.1 1:10): not seen
- IL-17A concentration sufficient to elicit a dramatic decrease in T cell proliferation ([1]; IFNγ and TNFα 2 ng/ml each, 12 hr, A1.1 1:10): 0.5 ng/mL
- T-cell proliferation in MSC-T cell co-culture ([1]; MSC:A1.1 1:20, O.D. 570 nm): enhanced the suppression
- immunosuppressive activity of wild-type MSCs ([1]; with IFNγ+TNFα, A1.1 1:10): increased the immunosuppressive activity
- immunosuppressive effect of auf1−/− MSCs ([1]; with IFNγ+TNFα, A1.1 1:10): did not further enhance
- half-lives of iNOS and IL-6 mRNAs in AUF1 knockout MSCs ([2]; added to IFNγ+TNFα): no effect
- stabilization of CXCL1 mRNA in AUF1 knockout MSCs ([2]; added to IFNγ+TNFα): at least twofold
- stabilization of iNOS, IL-6, and CXCL1 mRNAs in wild-type MSCs ([2]; added to IFNγ+TNFα): twofold stabilization
- iNOS mRNA stability ([2]; supplement to IFNγ+TNFα, within the time points tested): completely protected

— US12156889B2, “Methods of administering mesenchymal stem cells activated by cytokines for enhancing immunosuppression” (Rutgers, The State University of New Jersey, priority 2012, dated 2024)
